Consider one molecule from US20160053025A1 (SAMSUNG ELECTRONICS, published 2016).

Holding throughout (assay): ELISA, antibody coated, FLAG-tagged mutant Ang2 RBD detected with anti-FLAG-HRP
In experiment [1] the target is T1, Ang2 RBD P419A, FLAG-tagged (human, UniProt O15123 281-496, limits assumed).
T1 chain: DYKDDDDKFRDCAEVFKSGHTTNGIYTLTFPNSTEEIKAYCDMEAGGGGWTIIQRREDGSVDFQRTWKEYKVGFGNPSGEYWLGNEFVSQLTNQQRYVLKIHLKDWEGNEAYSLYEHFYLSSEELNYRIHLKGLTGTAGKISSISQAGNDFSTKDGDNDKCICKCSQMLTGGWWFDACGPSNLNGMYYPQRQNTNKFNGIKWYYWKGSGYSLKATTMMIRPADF
How it is done: (§1) To verify the epitope (or specific binding site) of the anti-Ang2 antibody prepared in Reference Example 2.3, an ELISA was performed using a recombinant protein where a receptor binding domain (RBD) of Ang2 protein in the form of being tagged with Flag was mutated by artificial means.
(§2) Each well of a 96-well MaxiSorp™ flat-bottom plate (Nunc) was coated with 50 ul (microliter) of 1000 nM antibody. Then, the plate was washed five times with 0.05% (v/v) Tween-20-containing PBS (PBST) and blocked with 1% (v/v) BSA-containing PBS at a room temperature for 2 hours. 250 ng of each mutant Ang2 protein obtained by substituting S417, Q418, P419, N421, 1434, D448, A449, P452, Y460, N467, K468, or F469 residue of Ang2 protein tagged with a FLAG sequence ([…], Sigma) at its N-terminal with alanine was added to each well of the plate, which was then allowed to react at a room temperature for 2 hours.
(§3) Finally, 50 ul of TMB substrates (Cell signaling) was added to each well of the plate to induce color development at a room temperature for 3 min. and the reaction was ceased by the addition of 50 ul of Stop solution (Cell signaling) and then, OD450 values were measured on a plate reader (Molecular Devices). By comparing binding affinities with mutated Ang2 to those of unmutated Ang2, each epitope of Ang2 antibodies was identified. The obtained measurement results of the binding affinities (%) with mutant Ang2 against the binding affinity with the native Ang2 are shown in the following Table 13.

The target in experiment [2] is T2, Ang2 RBD Y460A, FLAG-tagged (human, UniProt O15123 281-496, limits assumed).
T2 chain: T1 chain with A147P, Y188A
The protocol: as §1, §2, §3

Experiment [3] has as its target T3, Ang2 RBD Q418A, FLAG-tagged (human, UniProt O15123 281-496, limits assumed).
T3 chain: T1 chain with Q146A, A147P
The protocol:
as §1, §2, §3

The target in experiment [4] is T4, Ang2 RBD I434A, FLAG-tagged (human, UniProt O15123 281-496, limits assumed).
T4 construct: Printed as '1434', read as I434
T4 chain: T1 chain with A147P, I162A
The protocol: as §1, §2, §3

Experiment [5] deals with T5, Ang2 RBD S417A, FLAG-tagged (human, UniProt O15123 281-496, limits assumed).
T5 chain: T1 chain with S145A, A147P
How it is done:
as §1, §2, §3

Experiment [6] deals with T6, Ang2 RBD D448A, FLAG-tagged (human, UniProt O15123 281-496, limits assumed).
T6 chain: T1 chain with A147P, D176A
How it is done:
as §1, §2, §3

Experiment [7] has as its target T7, Ang2 RBD F469A, FLAG-tagged (human, UniProt O15123 281-496, limits assumed).
T7 chain: T1 chain with A147P, F197A
How it is done:
as §1, §2, §3

Residue numbers refer to the chain shown, from its start.

B1: SAIT-ANG2-AB-m10D6 (antibody, V domains shown)
VH: DVQLQESGPDLVKPSQSLSLTCTVTGYSITSDYAWNWIRQFPGNKLEWMGYINYSGNTDYNPSLKSRSSITRDTSKNQFFLQLNSVTTGDTATYYCARGNFEGAMDYWGQGTSVTVSS
VL: SIVMTQTPKFLLVSAGDRVTITCKASQSVSNDVAWYQQKPGQSPKLLIYYASNRYPGVPDRFTGSGYGTDFTFTISTVQAEDLAVYFCQQDYSSPWTFGGGTKLEIK
notes: Mouse monoclonal antibody purified from a hybridoma (KCLRF-BP-00295); it is not applied here; also called mouse antibody 10D6; 10D6 antibody
Turning to B1, the “binding affinity (%) with mutant Ang2 against the binding affinity with the native Ang2” value came to 41.1% in experiment [1]; 103% in experiment [2]; 38.9% in experiment [3]; 109% in experiment [4]; 101% in experiment [5]; 105% in experiment [6]. Further, the “binding affinity (%) with mutant Ang2 against the binding affinity with the native Ang2” value in experiment [7] is 109%.
